Sequences and labels used below:
B1: H103A: NTR point mutant (protein, UniProt P20789 1-424, looked up, variant H103A)
Neurotensin receptor type 1: MHLNSSVPQGTPGEPDAQPFSGPQSEMEATFLALSLSNGSGNTSESDTAGPNSDLDVNTDIYSKVLVTAIYLALFVVGTVGNSVTAFTLARKKSLQSLQSTVAYHLGSLALSDLLILLLAMPVELYNFIWVHHPWAFGDAGCRGYYFLRDACTYATALNVASLSVERYLAICHPFKAKTLMSRSRTKKFISAIWLASALLAIPMLFTMGLQNRSGDGTHPGGLVCTPIVDTATVKVVIQVNTFMSFLFPMLVISILNTVIANKLTVMVHQAAEQGRVCTVGTHNGLEHSTFNMTIEPGRVQALRHGVLVLRAVVIAFVVCWLPYHVRRLMFCYISDEQWTTFLFDFYHYFYMLTNALFYVSSAINPILYNLVSANFRQVFLSTLACLCPGWRHRRKKRPTFSRKPNSMSSNHAFSTSATRETLY
B2: F380A: NTR point mutant (protein, UniProt P20789 1-424, looked up, variant F380A)
Neurotensin receptor type 1: B1 Neurotensin receptor type 1 with A103H, F380A
B3: G390A: NTR point mutant (protein, UniProt P20789 1-424, looked up, variant G390A)
Neurotensin receptor type 1: B1 Neurotensin receptor type 1 with A103H, G390A
B4: A385L: NTR point mutant (protein, UniProt P20789 1-424, looked up, variant A385L)
Neurotensin receptor type 1: B1 Neurotensin receptor type 1 with A103H, A385L
B5: R395A: NTR point mutant (protein, UniProt P20789 1-424, looked up, variant R395A)
Neurotensin receptor type 1: B1 Neurotensin receptor type 1 with A103H, R395A
B6: P389A: NTR point mutant (protein, UniProt P20789 1-424, looked up, variant P389A)
Neurotensin receptor type 1: B1 Neurotensin receptor type 1 with A103H, P389A
B7: A86L: NTR point mutant (protein, UniProt P20789 1-424, looked up, variant A86L)
Neurotensin receptor type 1: B1 Neurotensin receptor type 1 with A86L, A103H
B8: V360A: NTR point mutant (protein, UniProt P20789 1-424, looked up, variant V360A)
Neurotensin receptor type 1: B1 Neurotensin receptor type 1 with A103H, V360A
B9: S373A: NTR point mutant (protein, UniProt P20789 1-424, looked up, variant S373A)
Neurotensin receptor type 1: B1 Neurotensin receptor type 1 with A103H, S373A
B10: L310A: NTR point mutant (protein, UniProt P20789 1-424, looked up, variant L310A)
Neurotensin receptor type 1: B1 Neurotensin receptor type 1 with A103H, L310A
B11: F342A: NTR point mutant (protein, UniProt P20789 1-424, looked up, variant F342A)
Neurotensin receptor type 1: B1 Neurotensin receptor type 1 with A103H, F342A
B12: N370A: NTR point mutant (protein, UniProt P20789 1-424, looked up, variant N370A)
Neurotensin receptor type 1: B1 Neurotensin receptor type 1 with A103H, N370A
B13: V313A: NTR point mutant (protein, UniProt P20789 1-424, looked up, variant V313A)
Neurotensin receptor type 1: B1 Neurotensin receptor type 1 with A103H, V313A
B14: Y349A: NTR point mutant (protein, UniProt P20789 1-424, looked up, variant Y349A)
Neurotensin receptor type 1: B1 Neurotensin receptor type 1 with A103H, Y349A
B15: D345A: NTR point mutant (protein, UniProt P20789 1-424, looked up, variant D345A)
Neurotensin receptor type 1: B1 Neurotensin receptor type 1 with A103H, D345A
B16: A203L: A2aR point mutant (protein, UniProt P29274 1-412, looked up, variant A203L)
Adenosine receptor A2a: MPIMGSSVYITVELAIAVLAILGNVLVCWAVWLNSNLQNVTNYFVVSLAAADIAVGVLAIPFAITISTGFCAACHGCLFIACFVLVLTQSSIFSLLAIAIDRYIAIRIPLRYNGLVTGTRAKGIIAICWVLSFAIGLTPMLGWNNCGQPKEGKNHSQGCGEGQVACLFEDVVPMNYMVYFNFFACVLVPLLLMLGVYLRIFLLARRQLKQMESQPLPGERARSTLQKEVHAAKSLAIIVGLFALCWLPLHIINCFTFFCPDCSHAPLWLMYLAIVLSHTNSVVNPFIYAYRIREFRQTFRKIIRSHVLRQQEPFKAAGTSARVLAAHGSDGEQVSLRLNGHPPGVWANGSAPHPERRPNGYALGLVSGGSAQESQGNTGLPDVELLSHELKGVCPEPPGLDDPLAQDGAGVS
B17: Q210A: A2aR point mutant (protein, UniProt P29274 1-412, looked up, variant Q210A)
Adenosine receptor A2a: B16 Adenosine receptor A2a with L203A, Q210A
B18: S213A: A2aR point mutant (protein, UniProt P29274 1-412, looked up, variant S213A)
Adenosine receptor A2a: B16 Adenosine receptor A2a with L203A, S213A
B19: R220A: A2aR point mutant (protein, UniProt P29274 1-412, looked up, variant R220A)
Adenosine receptor A2a: B16 Adenosine receptor A2a with L203A, R220A
B20: E219A: A2aR point mutant (protein, UniProt P29274 1-412, looked up, variant E219A)
Adenosine receptor A2a: B16 Adenosine receptor A2a with L203A, E219A
B21: L208A: A2aR point mutant (protein, UniProt P29274 1-412, looked up, variant L208A)
Adenosine receptor A2a: B16 Adenosine receptor A2a with L203A, L208A
B22: S223A: A2aR point mutant (protein, UniProt P29274 1-412, looked up, variant S223A)
Adenosine receptor A2a: B16 Adenosine receptor A2a with L203A, S223A
B23: T224A: A2aR point mutant (protein, UniProt P29274 1-412, looked up, variant T224A)
Adenosine receptor A2a: B16 Adenosine receptor A2a with L203A, T224A

Positions count from the first letter of the chain named. In names and notes the source's numbering stands.

The first data set is described as follows: Thermostability of NTR and mutants (3H-neurotensin binding). Conditions: Ligand(+) format. Format: physicochemical.
Regarding B1, the “thermostability, heated in the presence of 3H-neurotensin” value (shortened to “thermostability, heated in the presence”) was “improved thermostability”.
Take B2: the “thermostability, heated in the presence” value was “improved thermostability”.
Regarding B3, the “thermostability, heated in the presence” value was “improved thermostability”.
For B4, the “thermostability, heated in the presence” value is “improved thermostability”.
Turning to B5, the “thermostability, heated in the presence” value is on record as “improved thermostability”.
With B6, the “thermostability, heated in the presence” value was “improved thermostability”.
In the case of B7, the “thermostability, heated in the presence” value is reported as “improved thermostability”.
Regarding B8, the “thermostability, heated in the presence” value is recorded as “improved thermostability”.
For the molecule B9, the “thermostability, heated in the presence” value is reported as “improved thermostability”.
In the case of B10, the “thermostability, heated in the presence” value is listed as “improved thermostability”.
Regarding B11, the “thermostability, heated in the presence” value is “improved thermostability”.
On to B12, for which the “thermostability, heated in the presence” value is “improved thermostability”.
Regarding B13, the “thermostability, heated in the presence” value is given as “improved thermostability”.

Staying with this data set, now noted: heated in the absence of the agonist.
With B1, the “thermostability, 3H-neurotensin (agonist) binding after the heating step” value (shortened to “thermostability, 3H-neurotensin”) was “small but significant increase in thermostability”.
B4: the “thermostability, 3H-neurotensin” value is “small but significant increase in thermostability”.
For B14, the “thermostability, 3H-neurotensin” value is given as “small but significant increase in thermostability”.
B7: the “thermostability, 3H-neurotensin” value is “small but significant increase in thermostability”.
Consider B15, for which the “thermostability, 3H-neurotensin” value is recorded as “small but significant increase in thermostability”.

Another data set can be described thus: Thermostability of A2aR and mutants (ligand binding after or during heating). It is filed as physicochemical. Conditions: Ligand(−) format, binding after the heating step. The source says: FIG. 12 Flow chart showing the two different assay formats of ligand (+) and ligand (−) used to determine receptor thermostability.
• 1. 315 site-directed mutants made between residues 2-316 of A2aR. • 2. All of these mutants have been assayed for thermostability using an assay measuring agonist and antagonist binding after the heating step (Ligand(−) format as described in FIG. 12). • a. […] Mutations have been combined to generate mutants in a putative antagonist conformation. Wildtype A2aR has a Tm of 31° C. with ZM241385 bound. • a. Rant17 A54L+K122A+L235A Tm 48° C. (ZM241385 bound) • b. Rant19 A54L, T88A, V239A+A204L Tm 47° C. (ZM241385 bound) • c. Rant21 A54L, T88A, V239A+K122A Tm 49° C. (ZM241385 bound) • 4. Mutations from the agonist screen have been combined, but have led to only a very low level of improvement in Tm of +2° C.
Regarding B16, the “thermostability assayed with 3H-ZM241385 (antagonist)” value was “improved thermostability” and the “thermostability measured with 3H-NECA (agonist)” value (shortened to “thermostability measured”) was “improved thermostability”.
As to B17, the “thermostability measured” value is recorded as “improved thermostability”.
With B18, the “thermostability measured” value was “improved thermostability”.
B19: the “thermostability measured” value is reported as “improved thermostability”.
Take B20: the “thermostability measured” value is given as “improved thermostability”.
Regarding B21, the “thermostability measured” value is listed as “improved thermostability”.
Consider B22, for which the “thermostability measured” value is listed as “improved thermostability”.
On to B23, for which the “thermostability measured” value is “improved thermostability”.

Source of the values: patent US8785135B2, “Mutant G-protein coupled receptors and methods for selecting them” (Heptares Therapeutics Limited, priority 2007, dated 2014).
